Patent publication US11352399B2, “Peptide for toll-like receptor (TLR) inhibition and pharmaceutical composition comprising same” (GENESEN CO., LTD., priority 2017, dated 2022)
Primed or numbered codes have the meaning given here. Ends that are not written are not given here. FITC′ = fluorescein isothiocyanate

Experiments:
[1] = test system: hPBMC cells; test: NO secretion in LPS-treated hPBMC cells; type: cell-based, human; details: together with LPS, FIG. 12(b)
[2] = target: T1, hTLR4 (human TLR4) (Homo sapiens, UniProt O00206); test: SEAP activity (NF-κB activity) in HEK-Blue-hTLR4 cells; type: cell-based; details: for NF-κB activity (SEAP activity): together with LPS, FIG. 12(a); for SEAP activity, CPP sequence not linked: 12.5, 25, 50 μM, FIG. 1(b)
T1 construct: host or cells: HEK-Blue-hTLR4 (HEK293-derived reporter line)
Method: HEK-Blue™-hTLR4 cells were dispensed into 24-well plates (BD Biosciences) to a cell number of 2×10^5 cells/well, and incubation was performed overnight. The next day, the culture was removed and medium replacement was performed. Then, a portion (200 μl) of the culture was transferred to a microcentrifuge tube and heated at 65° C. for 10 minutes using a heating block (FINEPCR. Co., Seoul, Korea). Subsequently, the culture was transferred to 96-well plates (BD Biosciences), and absorbance was measured at 405 nm using the HEK-Blue™ detection kit (InvivoGen) and a microplate reader spectrophotometer (Molecular Devices Inc., Silicon Valley, Calif., USA), to analyze an expression level of SEAP (secreted alkaline phosphatase).
To this end, the inducible secreted embryonic alkaline phosphatase (SEAP) reporter gene was placed under the control of an IL-12 p40 minimal promoter (IL-12 p40 is produced by activation of NF-κB and AP-1 (activator protein 1) after stimulation of TLR4) which contains sites where DNAs of NF-κB and AP-1 bind. Then, HEK-Blue™-hTLR4 cells were treated with varying concentrations of TIP or TIP (TIP W/O CPP), to which CPP is not linked, at 12.5, 25, 50 μM, and then an average value of SEAP activity was calculated to measure TLR4 activity. The results are illustrated in FIGS. 1(a) and 1(b).
The results are illustrated in FIGS. 12(a) and 12(b).

[3] = target: T2, TLR4 (Homo sapiens, UniProt O00206); test: Confocal microscopy of TIP1-FITC and TLR4 in THP1 cells; type: cell-based; details: TIP1-FITC and LPS
T2 construct: endogenous in cells; host or cells: THP1
Method: (§1) RAW 264.7 cells and THP1 cells were dispensed into 24-well plates to a cell number of 2×10^5 cells/well, and then grown in an incubator overnight. Subsequently, combined treatment with TIP1 and LPS was performed. After 24 hours, the RAW 264.7 cells and the THP1 cells were fixed with 3.7% formaldehyde (Sigma-Aldrich Co. LLC) for 15 minutes, and immersed into 0.2% Triton X-100 (AMRESCO, Solon, Ohio, USA) for 15 minutes. Then, washing with PBS was performed three times and blocking with 2% BSA solution was performed. The blocked cells were incubated for 2 hours with TIP1-FITC (25 μM; Peptron, Inc., Daejeon, Korea), p-p65, TLR4, Myd88, TOM20 (1:1000; Santa Cruz Biotechnology Inc.), and NLRP3 (Adipogen) antibodies. Then, washing with PBS was performed three times. Subsequently, the cells were incubated with AlexaFluor […] and/or 488 and/or 546-conjugated secondary antibodies (Invitrogen, Carlsbad, Calif., USA) for 1 hour, and washed three times with PBS. Subsequently, the cells were stained at room temperature for 15 minutes using 5 μM Hoechst 33258 (Sigma-Aldrich Co.), and the number of the fluorescently stained cells was counted using a confocal laser scanning microscope (LSM-700, Carl Zeiss MicroImaging GmbH). The images were analyzed using Zen 2009 software.
(§2) The results are illustrated in FIG. 13.

[4] = target: T3, MyD88 (Homo sapiens, UniProt Q99836); test: Confocal microscopy of TIP1-FITC and MyD88 in THP1 cells; type: cell-based; details: TIP1-FITC and LPS
T3 construct: endogenous in cells; host or cells: THP1
Method: as §1, §2

T1 sequence (O00206 24-839): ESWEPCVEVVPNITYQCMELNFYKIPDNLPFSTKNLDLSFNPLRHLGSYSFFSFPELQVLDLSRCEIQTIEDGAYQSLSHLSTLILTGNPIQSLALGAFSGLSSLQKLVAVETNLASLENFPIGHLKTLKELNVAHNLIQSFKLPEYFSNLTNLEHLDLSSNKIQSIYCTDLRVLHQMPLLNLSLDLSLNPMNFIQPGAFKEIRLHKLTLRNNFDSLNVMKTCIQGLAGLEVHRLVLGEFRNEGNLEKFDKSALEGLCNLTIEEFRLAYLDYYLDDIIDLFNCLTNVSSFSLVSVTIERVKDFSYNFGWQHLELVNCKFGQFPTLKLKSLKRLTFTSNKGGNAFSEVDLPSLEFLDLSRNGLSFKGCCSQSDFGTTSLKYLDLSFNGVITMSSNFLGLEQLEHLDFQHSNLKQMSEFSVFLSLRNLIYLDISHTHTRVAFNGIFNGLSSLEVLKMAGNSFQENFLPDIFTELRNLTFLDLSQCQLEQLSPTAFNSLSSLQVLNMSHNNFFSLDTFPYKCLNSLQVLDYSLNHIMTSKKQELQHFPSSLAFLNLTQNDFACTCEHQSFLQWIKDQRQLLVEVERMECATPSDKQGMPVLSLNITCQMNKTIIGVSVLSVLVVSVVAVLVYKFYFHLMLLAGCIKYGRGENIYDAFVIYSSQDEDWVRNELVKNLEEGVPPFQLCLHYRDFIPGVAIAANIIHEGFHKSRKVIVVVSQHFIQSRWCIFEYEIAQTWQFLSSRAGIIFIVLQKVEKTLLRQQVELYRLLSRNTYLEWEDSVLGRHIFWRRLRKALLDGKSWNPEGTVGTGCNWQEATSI
T1 sequence (Q9Y6Y9 17-160 partner limits assumed): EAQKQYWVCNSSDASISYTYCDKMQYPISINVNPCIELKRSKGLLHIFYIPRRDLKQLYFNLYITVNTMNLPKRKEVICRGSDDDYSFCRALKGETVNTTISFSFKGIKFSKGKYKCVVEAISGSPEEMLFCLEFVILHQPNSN
T2 sequence (O00206 24-839): as the sequence (O00206 24-839) above
T3 sequence (Q99836 whole entry): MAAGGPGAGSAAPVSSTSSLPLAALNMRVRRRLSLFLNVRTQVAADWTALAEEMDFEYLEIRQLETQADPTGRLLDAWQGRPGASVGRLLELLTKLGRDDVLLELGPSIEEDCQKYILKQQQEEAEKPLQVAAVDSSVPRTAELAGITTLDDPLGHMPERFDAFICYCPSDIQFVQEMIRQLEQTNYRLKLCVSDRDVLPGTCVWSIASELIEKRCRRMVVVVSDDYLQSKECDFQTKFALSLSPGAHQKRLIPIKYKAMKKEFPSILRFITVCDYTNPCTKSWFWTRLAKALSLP

Row | Substance | NO secretion level [1] | NF-κB activity (SEAP activity) [2] | SEAP activity, CPP sequence not linked [2] | also measured
1 | RQIKIWFQNRRMKWKKSHCR (TIP1-2) | also inhibited NO secretion | also decreased NF-κB activity | – | –
2 | RQIKIWFQNRRMKWKKVLLI (TIP1-3) | no or insignificant changes were observed | no or insignificant changes were observed | – | –
3 | TIP1-FITC: TIP1 with fluorescein isothiocyanate (FITC) bound to the N-terminus ({FITC′}-RQIKIWFQNRRMKWKKSHCRVLLI) | – | – | – | interaction of TIP1-FITC with TLR4 [3]: strongly bound to each other; interaction of TIP1-FITC with MyD88 [4]: formed a weak bond
4 | RQIKIWFQNRRMKWKKTIPLLS (TIP2) [used as a control] | – | – | – | LPS-induced SEAP activity ([2]; TIP 12.5, 25, 50 μM, then LPS, FIG. 1(a)): unlike TIP2, TIP1 decreased LPS-induced SEAP activity
5 | SHCRVLLI (Decoy peptide 1) [TIP1 W/O CPP] | – | – | neither TIP1 (TIP1 W/O CPP) nor TIP2 (TIP2 W/O CPP) changed SEAP activity | –
6 | TIPLLS (Decoy peptide 2) [TIP2 W/O CPP] | – | – | neither TIP1 (TIP1 W/O CPP) nor TIP2 (TIP2 W/O CPP) changed SEAP activity | –
